The target of test [1] is Sec61α, N-terminally tagged with LgBiT (Oplophorus gracilirostris | not stated). The test can be described thus: split reporter (BiFC, NanoBiT); bimolecular luminescence complementation in living HeLa cells, 96-well plate, 24 h after co-transfection of one LgBiT and one SmBiT fusion plasmid (50 ng each); furimazine added, signal 4 min later; RLU normalised to the LgBiT fusion plus Halo-CS set to 1; forskolin (15 µM) lowered the rPKA-cPKA signal; digitonin plus trypsin eliminated the signals.

Test [2] addresses regulatory subunit of protein kinase A, C-terminally tagged with LgBiT (not stated | Oplophorus gracilirostris). The test can be described thus: split reporter (BiFC, NanoBiT); synthetic peptide complementation: HeLa cells expressing a LgBiT fusion, furimazine, then 0.002% digitonin, then synthetic peptide (scrambled, actin, SmBiT 1-100 µM; HaBiT up to 100 nM); signal 4 min after the peptide; RLU normalised to the scrambled peptide set to 1.

Test [3] addresses TRAPβ, C-terminally tagged with LgBiT (not stated | Oplophorus gracilirostris). The test is described as above.
Test [4] addresses Sec61α, N-terminally tagged with LgBiT (Oplophorus gracilirostris | not stated). The test is described as above.
Test [5] addresses Sec61β, C-terminally tagged with LgBiT (not stated | Oplophorus gracilirostris). Described as above.
Test [6] concerns the target TRAPα, C-terminally tagged with LgBiT (not stated | Oplophorus gracilirostris). The test is described as above.
The target of test [7] is Sec61α, C-terminally tagged with LgBiT (not stated | Oplophorus gracilirostris). Described as above.
For test [8], the target named is regulatory subunit of protein kinase A, C-terminally tagged with LgBiT (not stated | Oplophorus gracilirostris). The test can be described thus: split reporter (BiFC, NanoBiT); bimolecular luminescence complementation in living HeLa cells, 96-well plate, 24 h after co-transfection of one LgBiT and one SmBiT fusion plasmid (50 ng each); furimazine added, signal 4 min later; RLU normalised to the LgBiT fusion plus Halo-CS set to 1; forskolin (15 µM) lowered the rPKA-cPKA signal; digitonin plus trypsin eliminated the signals.

The target in test [9] is Sec61β, C-terminally tagged with LgBiT (not stated | Oplophorus gracilirostris). Described as above.
Test [10] concerns the target TRAPα, C-terminally tagged with LgBiT (not stated | Oplophorus gracilirostris). The test is described as above.
The target in test [11] is TRAPβ, C-terminally tagged with LgBiT (not stated | Oplophorus gracilirostris). Briefly: split reporter (BiFC, NanoBiT); synthetic peptide complementation: HeLa cells expressing a LgBiT fusion, furimazine, then 0.002% digitonin, then synthetic peptide (scrambled, actin, SmBiT 1-100 µM; HaBiT up to 100 nM); signal 4 min after the peptide; RLU normalised to the scrambled peptide set to 1. This is another data set of the same source.

The target of test [12] is Sec61α, N-terminally tagged with LgBiT (Oplophorus gracilirostris | not stated). Described as above. The source holds these as a separate data set.
The target in test [13] is Sec61β, C-terminally tagged with LgBiT (not stated | Oplophorus gracilirostris). The description is as above. The source holds these as a separate data set.
The target of test [14] is TRAPα, C-terminally tagged with LgBiT (not stated | Oplophorus gracilirostris). The description is as above. This is another data set of the same source.
The target of test [15] is Sec61α, C-terminally tagged with LgBiT (not stated | Oplophorus gracilirostris). The test is described as above. This is another data set of the same source.

Like-named read-outs stand apart in the source and are kept apart here.

“Sec61β, N-terminally tagged with SmBiT (from UniProt P60468 1-96) (natural protein)”: in test [1], the relative luminescence (RLU, Halo-CS control pair = 1) was 141 RLU.
With “synthetic HaBiT peptide (high affinity variant of SmBiT)”, the fold activity over the SmBiT peptide in test [2] came out at 10000 fold. In addition, the luminescence relative to the scrambled peptide in [3] is > 50 fold; in test [4] it was > 50 fold; in test [5] it was > 50 fold; in [6], > 50 fold; in test [7], 15 RLU.
As for “catalytic subunit of protein kinase A, C-terminally tagged with SmBiT (from UniProt P17612 1-351) (enzyme)”, the relative luminescence (RLU, Halo-CS control pair = 1) in [8] is 613 RLU.
Take “Sec63, N-terminally tagged with SmBiT (from UniProt Q9UGP8 1-760) (natural protein)”: the relative luminescence (RLU, Halo-CS control pair = 1) in [9] was 202 RLU.

B1: TRAPβ, C-terminally tagged with SmBiT (natural protein)
chain: EEGARLLASKSLLNRYAVEGRDLTLQYNIYNVGSSAALDVELSDDSFPPEDFGIVSGMLNVKWDRIAPASNVSHTVVLRPLKAGYFNFTSATITYLAQEDGPVVIGSTSAPGQGGILAQREFDRRFSPHFLDWAAFGVMTLPSIGIPLLLWYSSKRKYDTPKTKKN
B1: in [10], the relative luminescence (RLU, Halo-CS control pair = 1) came to 91 RLU.
As for CVTGYRLFEEIL [synthetic SmBiT peptide (11 + 1 aa)], the luminescence relative to the scrambled peptide in test [11] is > 10 fold; in test [12], > 10 fold; in test [13], > 10 fold; in test [14], > 10 fold; in test [15], 2 RLU.

B2: TRAPα, C-terminally tagged with SmBiT (natural protein)
chain: VLFRGGPRGLLAVAQDLTEDEETVEDSIIEDEDDEAEVEEDEPTDLVEDKEEEDVSGEPEASPSADTTILFVKGEDFPANNIVKFLVGFTNKGTEDFIVESLDASFRYPQDYQFYIQNFTALPLNTVVPPQRQATFEYSFIPAEPMGGRPFGLVINLNYKDLNGNVFQDAVFNQTVTVIEREDGLDGETIFMYMFLAGLGLLVIVGLHQLLESRKRKRPIQKVEMGTSSQNDVDMSWIPQETLNQINKASPRRLPRKRAQKRSVGSDE
For B2, in test [1], the relative luminescence (RLU, Halo-CS control pair = 1) was determined as 62 RLU.

The values are drawn from article PMC8508666.
